Measured values: article PMC5748213

Columns and labels:
human VPS29 (human) = human VPS29 (human) (UniProt Q9UBQ0); assay: ITC
[1] = target: retromer (VPS26–VPS29–VPS35) (UniProt O75436); assay: ITC
[2] = target: retromer (VPS26–VPS29–VPS35) (UniProt O75436); assay: SEC-MALS

Substance | Kd [1] [nM] | other results
RidL (Lpg2311/Ceg28), full length (from UniProt Q5ZT54 1-1167) (natural protein) | 151 | Kd (human VPS29 (human)): 181 nM; stoichiometry N (RidL per retromer (printed as 1:1)) [2]: 1; stoichiometry N (RidL per retromer (printed as 2:2)) [2]: 1
RidL_(30–236) (domain or fragment) | 164 | –
TBC1D5TBC (TBC GAP domain of human TBC1D5, residues 1–419) (from UniProt Q92609 1-419) (domain or fragment) | 450 | –
VARPc (VARP residues 396–746, the two cysteine-rich domains) (from UniProt Q96NW4 396-746) (domain or fragment) | 3000 | –
retromer (VPS26–VPS29–VPS35) (from UniProt O75436;Q9UBQ0;Q96QK1) (complex) | – | stoichiometry N [2]: 2
